This note sets out measurements from publication PMC3191170, “Epigenetic Control of Viral Life-Cycle by a DNA-Methylation Dependent Transcription Factor”.

Common to all, as to conditions: protein: ivt; chain copies: 2; label: 32P
The target in data set [1] is T1, Zta (BZLF1, ZEBRA, EB1) (Epstein-Barr virus (B95-8 strain), UniProt P03206 1-245). The experiment in a line: EMSA; EMSA with wheat germ in vitro translated Zta and 32P-labelled ds oligonucleotides; buffer, salt, pH and temperature not given (as in ref 39).
T1 sequence (P03206 whole entry): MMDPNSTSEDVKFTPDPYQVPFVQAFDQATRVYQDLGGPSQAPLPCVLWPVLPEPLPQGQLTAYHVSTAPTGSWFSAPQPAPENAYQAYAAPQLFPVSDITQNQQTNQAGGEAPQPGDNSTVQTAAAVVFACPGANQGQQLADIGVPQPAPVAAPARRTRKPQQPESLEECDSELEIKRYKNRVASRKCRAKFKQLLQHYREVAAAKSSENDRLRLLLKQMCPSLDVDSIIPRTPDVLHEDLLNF
For data set [2], the target named is T1, Zta (BZLF1, ZEBRA, EB1). The experiment in a line: EMSA; unmethylated; class III; EMSA with wheat germ in vitro translated Zta and 32P-labelled ds oligonucleotides; buffer, salt, pH and temperature not given (as in ref 39).
Data set [3] deals with T1, Zta (BZLF1, ZEBRA, EB1). The experiment in a line: EMSA; CpG methylated; EMSA with wheat germ in vitro translated Zta and 32P-labelled ds oligonucleotides; buffer, salt, pH and temperature not given (as in ref 39).

B1: Zp (-96) (dsDNA)
DNA 1: TAAATTTAGGTGTGTCTATGAGGTACA
DNA 2: TGTACCTCATAGACACACCTAAATTTA
As for B1, in data set [1], the binding result is listed as “binds”.

B2: Rp (-114) / CpG5 O, unmethylated (dsDNA)
DNA 1: CACTCATACTTAAGCGATGCTGATGCA
DNA 2: TGCATCAGCATCGCTTAAGTATGAGTG
As to B2, the binding result in data set [2] is reported as “no binding”.

B3: Rp (-114) / CpG5 O, methylated (dsDNA)
DNA 1: CACTCATACTTAAGCGATGCTGATGCA
DNA 2: TGCATCAGCATCGCTTAAGTATGAGTG
modifications: 5mC at CpG, both strands (M.SssI or synthesis)
As to B3, in data set [3], the binding result was “binds”.
